# In publication PMC9259988, “Heterologous Expression and Evaluation of Novel Plasmodium falciparum Transmission Blocking Vaccine Candidates” (Frontiers in Immunology, 2022):
# B1: Pf3D7_1143700 fragment 1-100 expressed in Drosophila melanogaster S2 cells (TBC1^DM) (domain or fragment, Plasmodium falciparum 3D7, UniProt Q8IHS8 1-100, looked up)
# chain: MKVKIGSFENFLERLNNIKEEDIIINDENTEEMFSSFLITFYKENEGRYTIQEQEYINNLLNILINKIRDNKNGRNFFSNLLCIHFKSITPYFINVKLKD
# notes: Conserved Plasmodium protein, unknown function, PF3D7_1143700, Plasmodium falciparum 3D7 genome (PlasmoDB), residues 1-100; codon-optimised synthetic gene; secreted; the dimer is held by a disulphide bond
# Molecular target: the molecule itself
# Assay: non-reducing and reducing SDS-PAGE; purified protein run non-reduced and reduced (10 mM dithiothreitol) on a 4-20% Bis-Tris gel, Coomassie-type staining
protein,measurement,value
B1,stoichiometry N,2
